In data set [1] the test system is Saccharomyces cerevisiae. Kind of data set: protein stability index of tFT-peptide fusion in wild type (PSI (0-1 scale)); higher = more stable (slower turnover). To be noted: genetic background: wild type. On the procedure:
(§1)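 MPS profiling in S. cerevisiae of two library types built from selected 12-aa C-degron peptides (IN1, IN2, LN1, LN3, VN2, R1-R5, W1-W3, Atg1 and Rpa12 C-termini): saturation mutagenesis libraries and C-terminal +1 capping libraries (13 aa). Each peptide is fused to the C-terminus of a sfGFP-mCherry timer, after a GGGS linker. Cells are FACS-sorted into 8 mCherry/sfGFP bins and sequenced. PSI runs from 0 (unstable) to 1 (stable), measured once in wild type and in the das1Δ or doa10Δ background.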

Data set [2] has as its system Saccharomyces cerevisiae. As to the kind of experiment: protein stability index of tFT-peptide fusion in deletion strain of DAS1 (PSI (0-1 scale)); higher = more stable (slower turnover). Here is the method: as §1
The test system of data set [3] is Saccharomyces cerevisiae. As to the kind of experiment: protein stability index of tFT-peptide fusion (C-terminal peptide) (PSI (0-1 scale)); higher = more stable (slower turnover). To be noted: temperature: 30 C. Here is the method: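 MPS profiling in S. cerevisiae of the yeast C-terminome library: the last 12 aa of each annotated ORF are fused to the C-terminus of a sfGFP-mCherry timer, after a GGGS linker. Cells are FACS-sorted into 8 mCherry/sfGFP bins and deep-sequenced. PSI runs from 0 (unstable) to 1 (stable); wild type and das1Δ backgrounds, two technical replicates each.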

[4] abbreviates: genetic background: das1 deletion.

± gives the standard deviation of the averaged measurements.
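Throughout, for protein stability index of tFT-peptide fusion in deletion strain of DAS1: PSI is a weighted mean of each variant's read distribution over the sorted stability bins, computed only for variants having over 10 reads in total.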
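Throughout, for protein stability index of tFT-peptide fusion in wild type: PSI derived as read-weighted mean over the 8 sorting bins, only variants exceeding 10 total reads kept, mCherry placed adjacent to the peptide and sfGFP distal.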

In the case of ADWRVGLWRGAS, the protein stability index stood at 0.519 in data set [1] and 0.729 in data set [2].

With APWRVGLWRGAS, the protein stability index in data set [1] came out at 0.512; in data set [2], 0.701.

Regarding ARERVGLWRGAS, the results for the protein stability index in data set [1] and in data set [2] were 0.609 and 0.726, respectively.

With ARLRVGLWRGAS, the protein stability index in data set [1] amounted to 0.581; in data set [2], 0.69.

As for ARNRVGLWRGAS, the protein stability index in data set [1] amounted to 0.606; in data set [2], 0.693.

As for ARWNVGLWRGAS, the protein stability index in data set [1] stood at 0.322; in data set [2], 0.662.

Turning to ARWRLGLWRGAS, the figures for the protein stability index in data set [1] and in data set [2] were 0.458 and 0.687, respectively.

Take ARWRMGLWRGAS: the protein stability index in data set [1] is 0.605; in data set [2], 0.689.

As for ARWRVGLTRGAS, the figures for the protein stability index in data set [1] and in data set [2] were 0.664 and 0.679, respectively.

As to ARWRVGLWAGAS, the protein stability index in data set [1] stood at 0.599; in data set [2], 0.627.

With ARWRVGLWGGAS, the protein stability index was 0.554 in data set [1] and 0.674 in data set [2].

Turning to ARWRVGLWIGAS, the protein stability index came to 0.367 in data set [1] and 0.572 in data set [2].

Regarding ARWRVGLWRGAD, the protein stability index was found to be 0.694 in data set [1] and 0.672 in data set [2].

ARWRVGLWRGAR: the figures for the protein stability index in data set [1] and in data set [2] were 0.663 and 0.666, respectively.

For ARWRVGLWRGAY, the protein stability index is 0.598 in data set [1] and 0.682 in data set [2].

Take ARWRVGLWRGHS: the values for the protein stability index in data set [1] and in data set [2] were 0.602 and 0.691, respectively.

As to ARWRVGLWRTAS, the figures for the protein stability index in data set [1] and in data set [2] were 0.0835 and 0.684, respectively.

Take ARWRVGLWVGAS: the protein stability index in data set [1] amounted to 0.468; in data set [2], 0.545.

ARWRVGLYRGAS: the values for the protein stability index in data set [1] and in data set [2] were 0.683 and 0.641, respectively.

On to ARWRVGTWRGAS, for which the protein stability index in data set [1] is 0.535; in data set [2] it was 0.687.

In the case of ARWRVKLWRGAS, the results for the protein stability index in data set [1] and in data set [2] were 0.357 and 0.684, respectively.

In the case of VSKTYEEHIETV [JEN1 C-terminal 12 aa], the protein stability index in data set [3] (setting [4]) came to 0.688 ± 0.023; in data set [3] (genetic background: wild type), 0.692 ± 0.013.

For the sequence VSNASNGCVLDA [ILV3 C-terminal 12 aa], the protein stability index in data set [3] (setting [4]) was determined as 0.70459 ± 3.7e-05; in data set [3] (genetic background: wild type) it was 0.707 ± 0.013.

Consider VTSGKAHFVLYN [SIM1 C-terminal 12 aa], for which the figures for the protein stability index in data set [3] (setting [4]) and in data set [3] (genetic background: wild type) were 0.695 ± 0.017 and 0.655 ± 0.017, respectively.

As for VVERTRQAHFAI [YEF1 C-terminal 12 aa], the figures for the protein stability index in data set [3] (setting [4]) and in data set [3] (genetic background: wild type) were 0.676 ± 0.023 and 0.6752 ± 0.0036, respectively.

Consider VVTYTLKVDLKV [YLR152C C-terminal 12 aa], for which the protein stability index in data set [3] (setting [4]) was determined as 0.469 ± 0.025; in data set [3] (genetic background: wild type), 0.491 ± 0.012.

On to VVVVVPAVVKTR [SSO1 C-terminal 12 aa], for which the protein stability index stood at 0.503 ± 0.011 in data set [3] (setting [4]) and 0.5221 ± 0.0046 in data set [3] (genetic background: wild type).

Regarding VVYYQMRCKKMT [BUD26 C-terminal 12 aa], the protein stability index in data set [3] (setting [4]) worked out at 0.678 ± 0.032; in data set [3] (genetic background: wild type), 0.4177 ± 0.0039.

In the case of VYVENPIRLFHH [ADE16 C-terminal 12 aa], the protein stability index in data set [3] (setting [4]) was found to be 0.712 ± 0.0083; in data set [3] (genetic background: wild type) it was 0.7235 ± 0.0019.

As to WAVICFCSGIHK [YMR027W C-terminal 12 aa], the protein stability index in data set [3] (setting [4]) is 0.5858 ± 0.0021; in data set [3] (genetic background: wild type), 0.546 ± 0.013.

For WDFKKQGFASRD [PDA1 C-terminal 12 aa], the protein stability index in data set [3] (setting [4]) worked out at 0.696 ± 0.01; in data set [3] (genetic background: wild type), 0.6926 ± 0.003.

As for WERTMRDLKLIH [ALG1 C-terminal 12 aa], the results for the protein stability index in data set [3] (setting [4]) and in data set [3] (genetic background: wild type) were 0.742 ± 0.027 and 0.64 ± 0.033, respectively.

WEVVTGIRKLLI [PEX12 C-terminal 12 aa]: the protein stability index in data set [3] (setting [4]) was found to be 0.68 ± 0.008; in data set [3] (genetic background: wild type) it was 0.401 ± 0.014.

“WFSCSLIFRNSW [YJR140W-A C-terminal 12 aa]”: the protein stability index in data set [3] (setting [4]) amounted to 0.6314 ± 0.0035; in data set [3] (genetic background: wild type) it was 0.618 ± 0.053.

These data come from the supplement of paper PMC10724198.
